Patent publication US20210388043A1 (IMMUNEONCO BIOPHARMACEUTICALS SHANGHAI, published 2021)

Molecular target: T1, HY03M (human)
T1 construct: Homodimer; also called SIRPαD1-Fc (N89A)
Assay: ELISA on coated FcγR; HY03M is the reference against which HY03MM was decreased (FIG. 9A)
Protocol: The binding activities of proteins of the present invention to FcγRs were tested by ELISA as follows.
The plate was left in a refrigerator at 4° C. overnight. Immediately before the test, the plate was washed by 0.05% PBS-T and then blocked by 3% skim milk for 1 hour at room temperature. […] After incubated at room temperature for 1 hour, the liquids in the plate were discarded. […] The plate was incubated at room temperature for 1 hour and then washed by the washing solutions for 5 times. Thereafter, HRP substrates were added to the plate, and the plate was left for colorimetric reaction for 10 to 20 minutes in the dark. The colorimetric reaction was terminated later using 1 N H₂SO₄, and the OD450 value was obtained in a plate reader.

T1 sequence (chain, as listed by the source limits assumed): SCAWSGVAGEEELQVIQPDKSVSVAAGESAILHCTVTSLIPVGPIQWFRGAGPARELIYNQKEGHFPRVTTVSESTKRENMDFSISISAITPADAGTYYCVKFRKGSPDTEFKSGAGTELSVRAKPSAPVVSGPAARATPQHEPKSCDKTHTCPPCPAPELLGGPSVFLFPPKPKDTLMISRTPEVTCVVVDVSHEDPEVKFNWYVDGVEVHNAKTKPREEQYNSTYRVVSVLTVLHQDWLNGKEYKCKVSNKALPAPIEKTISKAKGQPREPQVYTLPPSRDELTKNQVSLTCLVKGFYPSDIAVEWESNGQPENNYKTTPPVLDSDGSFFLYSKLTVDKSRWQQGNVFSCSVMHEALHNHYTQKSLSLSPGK

B1: CD32b (FcγRIIb) (receptor, UniProt P31994 46-217, looked up)
chain: APPKAVLKLEPQWINVLQEDSVTLTCRGTHSPESDSIQWFHNGNLIPTHTQPSYRFKANNNDSGEYTCQTGQTSLSDPVHLTVLSEWLVLQTPHLEFQEGETIVLRCHSWKDKPLVKVTFFQNGKSKKFSRSDPNFSIPQANHSHSGDYHCTGNIGYTLYSSKPVTITVQAP
notes: Bought recombinant protein coated on an ELISA plate
binding result: binds

B2: CD64 (FcγRI) (receptor, UniProt P12314 16-288, looked up)
chain: QVDTTKAVITLQPPWVSVFQEETVTLHCEVLHLPGSSSTQWFLNGTATQTSTPSYRITSASVNDSGEYRCQRGLSGRSDPIQLEIHRGWLLLQVSSRVFTEGEPLALRCHAWKDKLVYNVLYYRNGKAFKFFHWNSNLTILKTNISHNGTYHCSGMGKHRYTSAGISVTVKELFPAPVLNASVTSPLLEGNLVTLSCETKLLLQRPGLQLYFSFYMGSKTLRGRNTSSEYQILTARREDSGLYWCEAATEDGNVLKRSPELELQVLGLQLPTP
notes: as for B1
binding result: binds
